Numbering of substitutions follows the chain as printed.

These results are taken from patent publication US8088609 (DANISCO US, dated 2012).

Test [1] concerns the target T1, Purified CEA (Biodesign International) (UniProt P06731 35-685).
T1 construct: Bought purified antigen, immobilized on 96-well plates at 5 ug/ml; also called carcinoembryonic antigen; target protein CEA
T1 sequence: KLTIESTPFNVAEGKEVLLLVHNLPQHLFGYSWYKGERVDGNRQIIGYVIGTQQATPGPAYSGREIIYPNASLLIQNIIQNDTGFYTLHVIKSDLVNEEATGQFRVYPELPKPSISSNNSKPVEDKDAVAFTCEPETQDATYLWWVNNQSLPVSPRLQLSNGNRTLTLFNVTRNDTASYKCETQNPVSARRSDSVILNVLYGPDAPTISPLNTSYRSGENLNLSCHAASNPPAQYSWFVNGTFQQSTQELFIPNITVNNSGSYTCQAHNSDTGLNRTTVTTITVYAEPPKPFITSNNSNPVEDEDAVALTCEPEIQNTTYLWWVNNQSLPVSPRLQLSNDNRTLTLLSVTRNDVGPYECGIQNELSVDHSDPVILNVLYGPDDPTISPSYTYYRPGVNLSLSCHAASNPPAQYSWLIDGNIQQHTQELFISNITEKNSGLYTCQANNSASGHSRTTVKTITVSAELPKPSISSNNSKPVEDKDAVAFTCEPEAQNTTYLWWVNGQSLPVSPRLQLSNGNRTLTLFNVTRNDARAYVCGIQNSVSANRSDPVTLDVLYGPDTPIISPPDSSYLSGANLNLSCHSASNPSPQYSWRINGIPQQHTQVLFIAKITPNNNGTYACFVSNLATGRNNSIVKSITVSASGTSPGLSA
The experiment in a line: plate assay: CEA immobilized at 5 ug/ml, serially diluted B-Per extract, bound CAB read by nitrocefin hydrolysis at 490 nm.

Test [2] has as its target T1, Purified CEA (Biodesign International). The experiment in a line: plate assay: purified CEA immobilized at 5 ug/ml, 2-fold dilutions of purified CAB1.11i, bound BLA activity read with nitrocefin at 490 nm.

B1: CAB1.11 molecule (scFv)
chain: DIVLTQSPASLSVSLGQRATMSCRAGESVDIFGVGFLHWYQQKPGQPPKLLIYRASNLESGIPVRFSGTGSGTDFTLIIDPVEADDVATYYCQQTNEDPYTFGGGTKLEIKGGGGSGGGGSGGGGSGGGGSGGGGSGGGGSEVQLQQSGAELVEPGASVKLSCTASGFNIKDTYMHWVKQRPEQGLEWIGRIDPANGNSKYVPKFQGKATITADTSSNTAYLQLTSLTSEDTAVYYCAPFGYYVSDYAMAYWGQGTSVTVSSTPVSEKQLAEVVANTITPLMKAQSVPGMAVAVIYQGKPHYYTFGKADIAANKPVTPQTLFELGSISKTFTGVLGGDAIARGEISLDDAVTRYWPQLTGKQWQGIRMLDLATYTAGGLPLQVPDEVTDNASLLRFYQNWQPQWKPGTTRLYANASIGLFGALAVKPSGMPYEQAMTTRVLKPLKLDHTWINVPKAEEAHYAWGYRDGKAVRVSPGMLDAQAYGVKTNVQDMANWVMANMAPENVADASLKQGIALAQSRYWRIGSMYQGLGWEMLNWPVEANTVVETSFGNVALAPLPVAEVNPPAPPVKASWVHKTGSTGGFGSYVAFIPEKQIGIVMLANTSYPNPARVEAAYHILEALQ
notes: scFv-BLA fusion; also called HR14.8; clone HR14.8
In the case of B1, in test [1], the binding result was “binds”.

B2: CAB1.11i molecule (scFv)
chain: B1 chain with K283A, S586A
notes: Single-chain fusion of a T84.66-derived anti-CEA scFv (vL-(GGGGS)6-vH) to deimmunized beta-lactamase (BLA); also called encoded by plasmid pHR19.2
B2: the binding result in test [2] is “binds”.
